Patent publication US20090176711A1, “INHIBITORS OF AMYLOID PRECURSOR PROTEIN PROCESSING” (priority 2008, published 2009)
Non-standard residues stand in square brackets, D forms with d. No end group written: not given here. *: point of attachment. Biotin = O=C1N[C@H]2[C@H](CS[C@H]2CCCCC(=O)*)N1; Dnp = O=[N+]([O-])c1ccc(*)c([N+](=O)[O-])c1; Mca = COc1ccc2c(CC(=O)*)cc(=O)oc2c1; Ahx = NCCCCCC(=O)O

Assays:
[1] = test system: CTFβ accumulation (cleavage of APP by BACE1) in HEK 293-APP cells; experiment: Level of CTFβ in HEK 293-APP cells (immunoblot, 6E10); type: cell-based, human; conditions: HEK293-APP cells, 9 h
Experimental: When the confluency of the cells reached 90%, the cells were washed with PBS once, and HC peptide in serum free DMEM was added to the cells. […] The lysed cells were centrifuged at 12000×g for 10 min at 4° C. The protein in the supernatant was determined by bicinchoninic acid assay (Pierce, IL, USA) [Smith, P. K., Krohn, R. I., Hermanson, G. T., Mallia, A. K., Gartner, F. H., Provenzano, M. D., Fujimoto, E. K., Goeke, N. M., Olson, B. J., and Klenk, D. C. […] After electrophoresis, the proteins in the gel were electrophoretically transferred onto a polyvinylidene difluoride (PVDF) membrane at 100 mA for 80 min. The blotted membrane was fixed with 0.2% glutaraldehyde in PBS for 45 min at RT and treated for 5 min in boiling PBS. CTFβ (the C-terminal fragment of APP generated by BACE1) was detected by treatment of the membrane with 0.5 μg/ml of anti-Aβ Nterminal 6E10 antibody (Signetlabs, Inc., MA, USA) followed by incubation with 0.2 μg/ml of anti-mouse antibody coupled with HRP (Amersham Biosciences Ltd. Uppsala, Sweden). The developed film was scanned and the density of CTFβ band was determined by Scion Image Program (Scion Corporation, MD, USA).

[2] = test system: cleavage of F-Substrate M (f-Sub M) by rhBACE1; experiment: Fluorometric (FRET) assay for cleavage of F-Substrate M by rhBACE; type: biochemical, human; conditions: cleavage of f-Sub M by rhBACE1 (FIG. 29A)
Text: This assay system utilizes fluorescence resonance energy transfer (FRET) technology. Substrate M was synthesized with two fluorophores, a fluorescent donor and a proprietary quenching acceptor (purchased from a commercial source, R&D Systems). […] Upon cleavage of substrate by β-secretase, the fluorophore is separated from the quenching group, restoring the full fluorescence yield of donor.
Substrate labeled with fluorophores will be called F-Substrate M (R&D Systems). Recombinant human β-secretase will be called rhBACE (recombinant human β-site APP cleavage enzyme) (purchased from R&D systems).
F-Substrate M (20 μM) was preincubated with varying concentrations of complementary peptides in assay buffer (0.1 M NaOAc, pH 4.0) for 1 hr at RT. rhBACE (70 nM) in assay buffer was added. Cleavage by rhBACE was detected by reading emitted fluorescence level.
In this assay system, fluorescence resonance energy transfer (FRET) technology was utilized. Swedish mutant APP substrate (f-Sub M) with a fluorescent donor and a proprietary quenching acceptor (7-methoxycoumarin-4-acetyl-SEVNLDAEFRK(Dnp)-RR-NH2) was purchased from R&D systems, Inc (MN, USA). […] Upon cleavage of substrate by rhBACE1 (R&D Systems, Inc., MN, USA), the fluorescence donor is separated from the quenching group, restoring the full fluorescence yield of the donor. f-Sub M (10 μM) was pre-incubated with HC peptide in assay buffer (0.1 M NaOAc, pH 4.0) for 2 h at RT. After pre-incubation, substrate and HC peptide mixture in assay buffer was transferred to FluoroNunc™ 96 well white plate (Nunc, Roskilde, Denmark), and rhBACE1 (70 nM) was added. Time-dependent emission of fluorescence (excitation at 320 nm, emission at 405 nm) was monitored in a Molecular Devices SpectraMax Gemini EM fluorescence reader (CA, USA) for 1 h at 37° C. All assays were carried out in duplicate.

[3] = test system: production of Aβ in HEK 293-APP cells; experiment: Measurement of Aβ level in culture media of HEK293-APP cells (Aβ1-40 immunoassay); type: cell-based, human
Experimental: Human embryonic kidney (HEK) 293 cells stably transformed with the gene for APP695 (HEK 293-APP) were used for studies on the inhibitory activity of HC peptides. HEK 293-APP cells were generously supplied by Dr. T W Kim (Columbia University, NY, USA). HEK 293-APP cells were cultured in Dulbecco's Modified Eagle's Medium (DMEM) (Invitrogen, CA, USA) with 10% fetal bovine serum (HyClone, UT, USA) and 300 μg/ml of geneticin (Invitrogen, CA, USA) in a humidified atmosphere of 5% CO2, 95% air at 37° C. Cells were subcultured after trypsinization, and the medium was changed every 2-3 days.
Most of the APP processing including the cleavage by BACE1 occurs in endoplasmic reticulum (ER)/Golgi complex and endosome. It was investigated if c-Sub M and the deletion series would inhibit processing of APP in the cells. For this examination, HEK293 cells transformed with wild type human APP genes for our investigation was chosen.
The culture media from the peptide-treated cells (see above) was harvested and centrifuged at 3500×g for 10 min. Amount of Aβ in the supernatant was determined with human Aβ1-40 immunoassay kits (Signal Select™, BioSource, CA, USA) according to the instruction provided by the company.

[4] = target: T1, f-Sub M (7-methoxycoumarin-4-acetyl-SEVNLDAEFRK(Dnp)-RR-NH2); experiment: cell-based or functional assay
T1 peptide: Mca-SEVNLDAEFRK(Dnp)RR-NH2

[5] = target: T2, N-terminally biotinylated Substrate W; experiment: plate assay: HC peptide chemically coupled to wells, bio-Sub W, streptavidin-HRP (FIG. 27)
T2 construct: also called bio-Sub W; Sub W
T2 peptide: Biotin-SEVKMDAEFR
Experimental: (§1) Reacti-Bind™ maleic anhydride-activated polystyrene plate (Pierce, IL, USA) was coated with 50 μl of HC peptide (200 μM in distilled water) by chemical coupling for 3 h at room temperature (RT) and washed three times with phosphate buffered saline (PBS) containing 0.05% tween 20 (PBST). The plate was blocked with blocking buffer (0.5% gelatin in PBS) for 1 h at RT. After discarding blocking buffer, biotinylated BACE1 substrates (200 μM) in blocking buffer was applied on the plate and incubated for 2.5 h at RT. Each well was washed three times with PBST. The bound biotinylated BACE1 substrates were detected by incubation with streptavidin-horseradish peroxidase (Str-HRP, 125 mU/ml in blocking buffer) for 2 h at RT. Color reaction was carried out with 50 μl of 3,3′,5,5′-Tetramethylbenzidine Liquid Substrate (Sigma-Aldrich, MO, USA). After stopping the reaction by addition of an equal volume of 1 N HCl, absorbance at 450 nm was read in an automated ELISA reader (EL 312e, Bio-Tek Instruments, VT, USA). All assays were carried out in duplicate.
Thereafter, it was investigated if the c-Sub M and the deletions series bind to wild type Sub W. The results will give us important information on possibility of inhibition of wild type of APP cleavage in cells by the HC peptides derived from Sub M in view of the poor cleavage of Sub W by rhBACE1 in vitro. […] Thus, there is possibility that the HC peptides for Sub M (c-Sub M series) or its peptidomimetics will inhibit the cleavage of wild type APP by BACE1 in cells.

[6] = target: T3, N-terminally biotinylated Substrate M; experiment: plate assay: complementary peptide on wells, biotinylated substrate, streptavidin-HRP
T3 construct: also called bio-Sub M; Sub M
T3 peptide: Biotin-SEVNLDAEFR
Experimental: (§2) Complementary peptides (0.2, 2, 20, and 200 μM) were dissolved in phosphate buffered saline (PBS) (pH 7.4) and fixed to microtiter wells for 5 hr at 37° C. The wells were blocked with blocking buffer (3% BSA/PBS) for 1 hr at 37° C. Either N-terminally biotinylated Substrate W or M (20 μM) in blocking buffer was added and incubated for overnight at 4° C. Streptavidin-horseradish peroxidase in blocking buffer was added to detect resulting bound substrates. The plate was incubated for 2 hr at room temperature (RT), followed by addition of 3,3′,5,5′-tetramethyl-benzidine (TMB) as substrate for horseradish peroxidase for color reaction.

[7] = target: T4, recombinant human β-secretase (rhBACE1) (human, UniProt P56817 22-457, limits assumed); experiment: ELISA, c-Sub M immobilized
T4 construct: Bought reagent; also called recombinant human β-site APP cleavage enzyme

[8] = target: T3, N-terminally biotinylated Substrate M; experiment: plate assay: HC peptide chemically coupled to wells, bio-Sub M, streptavidin-HRP (Table 2)
Experimental: as §1
The binding and inhibitory activities of these peptides were determined as described in Experimental Procedures. The concentration of HC peptides and f-Sub M was 0.5 mM and 10 μM, respectively. All the experimental data for the binding activity as well as for the inhibitory activity were within 5% error range.

[9] = target: T3, N-terminally biotinylated Substrate M; experiment: plate assay: HC peptide chemically coupled to wells, bio-Sub M, streptavidin-HRP (Table 1)
Experimental: as §1
The HC peptides were chemically coupled to the surface of a microtiter plate to minimize the different coating efficiency of peptides, and the Sub M labeled with biotin (bio-Sub M) was applied. bio-Sub M bound to c-Sub but not to Sub M-c (FIG. 25A). To test inhibitory activity of HC peptide, FRET assay system was used as described above. […]

[10] = target: T2, N-terminally biotinylated Substrate W; experiment: plate assay: complementary peptide on wells, biotinylated substrate, streptavidin-HRP
Experimental: as §2

T4 sequence (P56817 22-457 limits assumed): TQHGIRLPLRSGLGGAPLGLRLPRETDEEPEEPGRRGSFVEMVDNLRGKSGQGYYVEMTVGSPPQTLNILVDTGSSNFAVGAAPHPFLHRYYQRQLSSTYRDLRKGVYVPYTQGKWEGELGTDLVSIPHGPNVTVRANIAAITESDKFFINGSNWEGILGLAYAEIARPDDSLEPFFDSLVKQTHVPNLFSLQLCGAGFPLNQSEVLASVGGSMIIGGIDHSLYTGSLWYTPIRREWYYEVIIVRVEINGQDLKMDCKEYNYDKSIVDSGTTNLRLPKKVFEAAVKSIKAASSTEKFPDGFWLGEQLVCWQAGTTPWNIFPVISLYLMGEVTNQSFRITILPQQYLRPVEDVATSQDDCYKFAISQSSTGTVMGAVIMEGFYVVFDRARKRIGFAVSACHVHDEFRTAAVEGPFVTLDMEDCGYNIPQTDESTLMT

Molecule: NH2-(CH2)5-CO-Cys-Ile-Gln-Ile-His-Phe-NH2 ([Ahx]CIQIHF-NH2; N-terminus assumed; SMILES CC[C@H](C)[C@H](NC(=O)[C@H](CCC(N)=O)NC(=O)[C@@H](NC(=O)[C@H](CS)NC(=O)CCCCCN)[C@@H](C)CC)C(=O)N[C@@H](Cc1c[nH]cn1)C(=O)N[C@@H](Cc1ccccc1)C(N)=O) [AHX-c-Sub M ΔN3C1]
- accumulation of the cleavage product CTFβ [1]: inhibited the accumulation of both forms of CTFβs
- in vitro inhibitory activity relative to non-modified c-Sub M ΔN3C1 [2]: by half
- reduction of amount of Aβ released ([3]; 6.25 μM, 9 h): about 70%
- amount of Aβ released into the culture medium ([3]; increasing concentrations): reduced in a concentration dependent manner

Molecule: β-secretase inhibitor IV [reference compound]
- accumulation of the cleavage product CTFβ [1]: inhibited accumulation of only the nonphosphorylated form of CTFβ
- inhibition of production of Aβ ([3]; 2 μM): about 90%

B1: c-Sub M (peptide)
peptide: SEFCIQIHFR-NH2
notes: Hydropathic complementary decapeptide to Sub M, read 5'-3'
- inhibition of cleavage of f-Sub M by rhBACE1 (FRET), HC peptide 100 fold over substrate [4]: ~50%
- inhibitory activity for the cleavage of f-Sub M by rhBACE1 (FRET; HC peptide 1 mM, f-Sub M 10 µM) [4]: 45%
- fold binding to Sub W relative to c-Sub W [5]: 4 fold
- binding result [6]: binds
- binding result [7]: no binding

Molecule: SEFCIQIHF-NH2 [c-Sub M ΔC1]
- inhibitory activity for the cleavage of f-Sub M by rhBACE1 (FRET; HC peptide 1 mM, f-Sub M 10 µM) [4]: 90%
- binding result [8]: binds

B2: c-Sub W (peptide)
peptide: SEFCIHLHFR-NH2
notes: Hydropathic complementary decapeptide to Sub W, read 5'-3'
- binding result [9]: binds
- binding result [10]: binds

B3: Sub W-c (peptide)
peptide: RLHFYLRLKA-NH2
notes: Hydropathic complementary decapeptide to Sub W, read 3'-5'
- binding result [9]: binds
